Where two headings read alike, the source gives them in different places.
Experiments:
[1] = molecular target: full length tau(pS422) SEQ ID NO: 02 (Homo sapiens, UniProt P10636, S739X); assay: ELISA binding specificity of VH/VL combinations
Protocol: (§1) In the following Table the binding specificity for different VH/VL combinations are shown (EC50 values in [ng/ml]).
(§2) Non-biotinylated peptide/protein/aggregate was added to non-coated Maxisorb plates, biotinylated peptide/protein/aggregate in PBS was added to streptavidin-coated Maxisorb plates, and plates were incubated over-night. The supernatant was discarded and the wells washed three times with 90 μl wash buffer (lx PBS/0.1% Tween 20). Remaining reactive spots were blocked with blocking buffer (lx PBS/2% BSA (Bovine Serum Albumin Fraction V, fatty acid free, Roche, Cat. No.: 10735078001)/0.05% Tween 20) by incubating for one hour. The supernatant was discarded and the wells washed three times with 90 μl wash buffer. Samples and control antibody were prepared in 12 dilutions (1:2) in ELISA buffer (lx PBS/0.5% BSA (Bovine Serum Albumin Fraction V, fatty acid free, Roche, Cat. No.: 10735078001)/0.05% Tween 20) with a start concentration of 500 ng/ml. The incubation time was 60 minutes at room temperature on a shaker. The supernatant was discarded and the wells washed three times with 90 μl wash buffer. Solutions of secondary antibody were prepared in ELISA buffer. A total of 25 μl antibody-mix was transferred to all wells of the assay plate and the plate was thereafter incubated on shaker for 60 minutes at room temperature. The supernatant was discarded and the wells were washed three times with 90 μl wash buffer. 25 μl of ABTS solution was added to all wells. The absorbance was read at 405 nm-492 nm.

[2] = molecular target: T1, tau peptide residues 416 to 430 of SEQ ID NO: 01 (Homo sapiens, UniProt P10636); assay: ELISA binding specificity of VH/VL combinations
T1 construct: 416 to 430
Protocol: as §1, §2

tau(pS422) aggregates = tau(pS422) aggregates (Homo sapiens, UniProt P10636, S739X); assay: ELISA binding specificity of VH/VL combinations
Protocol: as §1, §2

[3] = molecular target: T2, S422A tau mutant S422A SEQ ID NO: 01 (Homo sapiens, UniProt P10636, S739A); assay: ELISA binding specificity of VH/VL combinations
T2 construct: (A)=full length human tau S422A mutant
T2 sequence (P10636 1-441 isoform P10636-8 S422A): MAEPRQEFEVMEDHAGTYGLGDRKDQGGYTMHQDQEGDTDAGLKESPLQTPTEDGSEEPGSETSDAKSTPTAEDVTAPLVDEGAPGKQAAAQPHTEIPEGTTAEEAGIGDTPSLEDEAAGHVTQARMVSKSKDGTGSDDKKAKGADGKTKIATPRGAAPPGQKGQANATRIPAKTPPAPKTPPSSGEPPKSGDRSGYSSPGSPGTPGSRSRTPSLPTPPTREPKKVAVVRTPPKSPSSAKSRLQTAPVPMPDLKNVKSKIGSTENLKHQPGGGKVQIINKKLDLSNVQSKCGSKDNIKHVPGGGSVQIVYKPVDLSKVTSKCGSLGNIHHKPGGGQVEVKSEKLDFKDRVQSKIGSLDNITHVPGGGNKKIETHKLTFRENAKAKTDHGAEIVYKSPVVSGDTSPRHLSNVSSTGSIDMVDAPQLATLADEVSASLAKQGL
Protocol: as §1, §2

[4] = molecular target: tau(pS422) fragment SEQ ID NO: 03 (Homo sapiens, UniProt P10636, S739X); assay: ELISA binding specificity of VH/VL combinations
Protocol: as §1, §2

[5] = molecular target: human tau phosphorylated at S422 (Homo sapiens, UniProt P10636, S739X); assay: Western Blot selectivity of humanized VH/VL combinations; assay type: binding; settings: FIG. 5
From the text: FIG. 5 is a Western Blot showing the selectivity of selected humanized VH/VL combinations; (1)=VH00/VL00, (2)=VH32/VL21, (3)=VH20/VL22, (4)=VH32/VL22, (5)=VH33/VL22.
The sensitivity of selected humanized VH/VL combinations to the human tau mutant S422A can be seen from the Western Blots shown in FIG. 5. All humanized variants selectively bind to human tau phosphorylated at S422.

human tau(pS422) = human tau(pS422) (Homo sapiens, UniProt P10636, S739X); assay: BIAcore kinetic screening and kinetic rates of humanized VH/VL combinations; assay type: binding; settings: for MR: molar ratio; for kd / t/2 diss: VL17 or VL19 with VH variants
Protocol: In the following Table characteristics of the different humanized variants of the rabbit light chain variable domain in combination with the humanized heavy chain variable domains VH14 and VH20, respectively, are shown. Binding partner was human tau(pS422).
Kinetic screening was performed according to Schraeml et al. (Schraeml, M. and M. Biehl, Methods Mol. Biol. 901 (2012) 171-181) on a BIAcore 4000 instrument, mounted with a BIAcore CM5 sensor. The BIAcore 4000 instrument was under the control of the software version V1.1. A BIAcore CM5 series S chip was mounted into the instrument and was hydrodynamically addressed and preconditioned according to the manufacturer's instructions. The instrument buffer was HBS-EP buffer (10 mM HEPES (pH 7.4), 150 mM NaCl, 1 mM EDTA, 0.05% (w/v) P20). An antibody capture system was prepared on the sensor surface. A polyclonal goat anti-human antibody with human IgG-Fc specificity (Jackson Lab.) was immobilized at 30 μg/ml in 10 mM sodium acetate buffer (pH 5) to spots 1, 2, 4 and 5 in the instrument's flow cells 1, 2, 3 and 4 at 10,000 RU using NHS/EDC chemistry. In each flow cell the antibodies were captured on spot 1 and spot 5. Spot 2 and spot 4 were used as reference spots. The sensor was deactivated with a 1 M ethanolamine solution. Humanized antibody derivatives were applied at concentrations between 44 nM and 70 nM in instrument buffer supplemented with 1 mg/ml CMD (carboxymethyldextrane). The antibodies were injected at a flow rate of 30 μl/min for 2 minutes. The capture level (CL) of the surface-presented antibodies was measured in rel. response units (RU). The analytes in solution, phosphorylated human tau protein, non-phosphorylated human tau protein and the phosphorylated human tau mutant protein T422S were injected at 300 nM for 3 minutes at a flow rate of 30 μl/minute. The dissociation was monitored for 5 minutes. The capture system was regenerated by a 1 minute injection of 10 mM glycine buffer, pH 1.7 at 30 μL/minute over all flow cells. Two report points, the recorded signal shortly before the end of the analyte injection, denoted as binding late (BL) and the recorded signal shortly before the end of the dissociation time, stability late (SL), were used to characterize the kinetic screening performance. Furthermore, the dissociation rate constant kd (1/s) was calculated according to a Langmuir model and the antibody/antigen complex half-life was calculated in minutes according to the formula ln(2)/(60*kd). The molar ratio (MR) was calculated according to the formula MR=(Binding Late (RU))/(Capture level (RU))*(MW(antibody)/(MW(antigen)). In case the sensor was configured with a suitable amount of antibody ligand capture level, each antibody should be able to functionally bind at least to one analyte in solution, which is represented by a molar ratio of MR=1.0. Then, the molar ratio is also an indicator for the valence mode of analyte binding. The maximum valence can be MR=2 for an antibody binding two analytes, one with each Fab valence.
In another embodiment, kinetic rates were determined at 25° C. and 37° C. using the same experimental setup, but using multiple concentration series of each analyte in solution at 0 nM (buffer), 1.2 nM, 3.7 nM, 11.1 nM, 33.3 nM, 100 nM and 300 nM. From the concentration-dependent binding behavior the kinetic data was calculated using the BIAcore evaluation software according to the manufacturer's instructions and a Langmuir 1.1 model with RMAX global.

Molecule | kd (human tau(pS422); 25 °C) [s⁻¹] | t/2 diss (human tau(pS422); 25 °C) [min] | further results
VH00/VL00: rabbit antibody reference (parent of humanized variants, from mAb 086); VH SEQ ID NO: 11, VL SEQ ID NO: 07 (antibody, listed as Oryctolagus cuniculus, V domains shown) VH: QSVEESGGRLVTPGTPLTLTCTVSGFSLSSNAINWVRQAPGKGLEWIGYIAVSGNTYYASWAKGRFTISKASTTVDLKMTSPTAEDTGTYFCGKSNIWGPGTLVTVSL VL: AQVLTQTTSPVSAAVGSTVTISCQSSQSVRTNKLAWFQQKPGQPPKRLIYSASTLDFGVPSRFSASGSGTQFTLTISDVQCDDAATYYCLGYFDCSIADCVAFGGGTEVVVK |  |  | EC50 full length tau(pS422) SEQ ID NO: 02 [1]: 5.2 ng/ml; EC50 tau peptide residues 416 to 430 of SEQ ID NO: 01 [2]: >1 µg/mL; EC50 tau(pS422) aggregates (tau(pS422) aggregates): 18.1 ng/ml; EC50 S422A tau mutant S422A SEQ ID NO: 01 [3]: 0.0479 µg/mL; EC50 tau(pS422) fragment SEQ ID NO: 03 [4]: 6.3 ng/ml; selectivity and cross-reactivity in Western Blot [5]: low level x-reactivity to non-S422 phosphoepitopes; t/2diss 25° C. (human tau(pS422); 25 °C): 54 min; Kd (human tau(pS422); 25 °C, read-out: KD 25° C.): 8 nM; t/2diss 37° C. (human tau(pS422); 37 °C): 24 min; Kd (human tau(pS422); 37 °C, read-out: KD 37° C.): 12 nM; MR (human tau(pS422); 25 °C): 0.6; MR (human tau(pS422); 37 °C): 0.8
VL17 with VH00: anti-human tau(pS422) antibody; VH SEQ ID NO: 11, VL SEQ ID NO: 37 (antibody, listed as Oryctolagus cuniculus, V domains shown, humanized sequence) VH: QSVEESGGRLVTPGTPLTLTCTVSGFSLSSNAINWVRQAPGKGLEWIGYIAVSGNTYYASWAKGRFTISKASTTVDLKMTSPTAEDTGTYFCGKSNIWGPGTLVTVSL VL: DIQMTQSPSSLSASVGDRVTITCRSSQSVRTNKLAWFQQKPGQPPKRLIYSASTLDFGVPSRFSGSGSGTEFTLTISSLQPEDFATYYCLGYFDCSIADCVAFGGGTKVEIK | 0.000498 | 23 | 
VL17 with VH02: anti-human tau(pS422) antibody; VH SEQ ID NO: 47, VL SEQ ID NO: 37 (antibody, V domains shown, humanized sequence) VH: QSVLESGGGLVQPGGSLRLSCAASGFSLSSNAINWVRQAPGKGLEWVGYIAVSGNTYYASWAKGRFTISRDNSKNTLYLQMNSLRAEDTAVYYCGKSNIWGPGTLVTVSS VL: DIQMTQSPSSLSASVGDRVTITCRSSQSVRTNKLAWFQQKPGQPPKRLIYSASTLDFGVPSRFSGSGSGTEFTLTISSLQPEDFATYYCLGYFDCSIADCVAFGGGTKVEIK | 0.00371 | 3 | 
VL17 with VH04: anti-human tau(pS422) antibody; VH SEQ ID NO: 49, VL SEQ ID NO: 37 (antibody, V domains shown, humanized sequence) VH: QSVLESGGGLVQPGGSLRLSCAVSGFSLSSNAINWVRQAPGKGLEWVGYIAVSGNTYYASWAKGRFTISRDSTTLYLQMNSLRAEDTAVYYCGKSNIWGPGTLVTVSS VL: DIQMTQSPSSLSASVGDRVTITCRSSQSVRTNKLAWFQQKPGQPPKRLIYSASTLDFGVPSRFSGSGSGTEFTLTISSLQPEDFATYYCLGYFDCSIADCVAFGGGTKVEIK | 0.00416 | 3 | 

The next lines start with results.

kd (human tau(pS422); 25 °C) [s⁻¹] | t/2 diss (human tau(pS422); 25 °C) [min] | Molecule | further results
0.0023 | 5 | VL17 with VH01: anti-human tau(pS422) antibody; VH SEQ ID NO: 46, VL SEQ ID NO: 37 (antibody, V domains shown, humanized sequence) VH: QQLVESGGGLVQPGGSLRLSCAASGFSLSSNAINWVRQAPGKGLEWVGYIAVSGNTYYASWAKGRFTISRDNSKNTLYLQMNSLRAEDTAVYYCGKSNIWGQGTLVTVSS VL: DIQMTQSPSSLSASVGDRVTITCRSSQSVRTNKLAWFQQKPGQPPKRLIYSASTLDFGVPSRFSGSGSGTEFTLTISSLQPEDFATYYCLGYFDCSIADCVAFGGGTKVEIK | 
0.00393 | 3 | VL17 with VH03: anti-human tau(pS422) antibody; VH SEQ ID NO: 48, VL SEQ ID NO: 37 (antibody, V domains shown, humanized sequence) VH: QSVLESGGGLVQPGGSLRLSCAVSGFSLSSNAINWVRQAPGKGLEWVGYIAVSGNTYYASWAKGRFTISRDNSKNTLYLQMNSLRAEDTAVYYCGKSNIWGPGTLVTVSS VL: DIQMTQSPSSLSASVGDRVTITCRSSQSVRTNKLAWFQQKPGQPPKRLIYSASTLDFGVPSRFSGSGSGTEFTLTISSLQPEDFATYYCLGYFDCSIADCVAFGGGTKVEIK | 
0.00326 | 4 | VL17 with VH15: anti-human tau(pS422) antibody; VH SEQ ID NO: 51, VL SEQ ID NO: 37 (antibody, V domains shown, humanized sequence) VH: QSVVESGGGLVQPGGSLRLSCAASGFSLSSNAINWVRQAPGKGLEWVGYIAVSGNTYYASWAKGRFTISRDNSKNTLYLQMNSLRAEDTAVYYCGKSNIWGPGTLVTVSS VL: DIQMTQSPSSLSASVGDRVTITCRSSQSVRTNKLAWFQQKPGQPPKRLIYSASTLDFGVPSRFSGSGSGTEFTLTISSLQPEDFATYYCLGYFDCSIADCVAFGGGTKVEIK | 

Reference: US10251952B2, “Humanized anti-tau(pS422) antibody brain shuttles and use thereof” (Hoffmann-La Roche Inc., priority 2014, dated 2019)
